Test results: IntAct's records for PubMed 27951647

B1: Acid stress protein IbaG (Escherichia coli (strain K12)), P0A9W6 (parent)
chain: MENNEIQSVLMNALSLQEVHVSGDGSHFQVIAVGELFDGMSRVKKQQTVYGPLMEYIADNRIHAVSIKAYTPAEWARDRKLNGF
partner: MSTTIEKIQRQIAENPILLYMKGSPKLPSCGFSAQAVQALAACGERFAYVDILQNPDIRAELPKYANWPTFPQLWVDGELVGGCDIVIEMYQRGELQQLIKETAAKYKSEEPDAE

Variants of: B1
Details: with glrx4_ecoli grxD

Effect of a mutation on the interaction, with no effect:
H27A
H27C
H63A
H63C
S26A
